Experiments:
Conditions in all cases: Homo sapiens
[1] = substrate: CC[C@H](C)[C@H](NC(=O)[C@@H](NC(=O)[C@H](CC(=O)O)NC(=O)[C@H](CC(=O)O)NC(C)=O)[C@@H](C)O)C(=O)N[C@@H](Cc1cc(=O)oc2cc(OP(=O)(O)O)ccc12)C(=O)N[C@@H](CC(=O)O)C(=O)N[C@H](C(=O)N[C@@H](CC(C)C)C(=O)N[C@@H](CC(=O)O)C(N)=O)C(C)C
Description: (§1) Substrate activity at SHP2 (unknown origin) expressed in Escherichia coli BL21 (DE3) assessed as Kcat/Km ratio incubated for 60 mins by fluorescence based assay

[2] = substrate: CC[C@H](C)[C@H](NC(=O)[C@@H](NC(=O)[C@@H]1CCCN1C(=O)[C@H](CC(=O)O)NC(C)=O)[C@@H](C)O)C(=O)N[C@@H](Cc1cc(=O)oc2cc(OP(=O)(O)O)ccc12)C(=O)N1CCC[C@H]1C(=O)N[C@H](C(=O)N[C@@H](CC(C)C)C(=O)N[C@@H](CC(=O)O)C(N)=O)C(C)C
Description: as §1

[3] = substrate: CC[C@H](C)[C@H](NC(=O)[C@@H](NC(=O)[C@H](CC(=O)O)NC(=O)[C@H](CC(=O)O)NC(C)=O)[C@@H](C)O)C(=O)N[C@@H](Cc1cc(=O)oc2cc(OP(=O)(O)O)ccc12)C(=O)N[C@@H](CC(=O)O)C(=O)N[C@H](C(=O)N[C@@H](CC(C)C)C(=O)N[C@@H](CC(=O)O)C(N)=O)C(C)C; remark: listed apart in the source
Description: (§2) Substrate activity at SHP2 (unknown origin) expressed in Escherichia coli BL21 (DE3) assessed as Km incubated for 60 mins by fluorescence based assay

[4] = substrate: CC[C@H](C)[C@H](NC(=O)[C@@H](NC(=O)[C@@H]1CCCN1C(=O)[C@H](CC(=O)O)NC(C)=O)[C@@H](C)O)C(=O)N[C@@H](Cc1cc(=O)oc2cc(OP(=O)(O)O)ccc12)C(=O)N1CCC[C@H]1C(=O)N[C@H](C(=O)N[C@@H](CC(C)C)C(=O)N[C@@H](CC(=O)O)C(N)=O)C(C)C; remark: listed apart in the source
Description: as §2

[5] = substrate: CC[C@H](C)[C@H](NC(=O)[C@@H](NC(=O)[C@H](CC(=O)O)NC(=O)[C@H](CC(=O)O)NC(C)=O)[C@@H](C)O)C(=O)N[C@@H](Cc1cc(=O)oc2cc(OP(=O)(O)O)ccc12)C(=O)N[C@@H](CC(=O)O)C(=O)N[C@H](C(=O)N[C@@H](CC(C)C)C(=O)N[C@@H](CC(=O)O)C(N)=O)C(C)C; remark: listed apart in the source
Description: (§3) Substrate activity at SHP2 (unknown origin) expressed in Escherichia coli BL21 (DE3) assessed as Kcat incubated for 60 mins by fluorescence based assay

[6] = substrate: CC[C@H](C)[C@H](NC(=O)[C@@H](NC(=O)[C@@H]1CCCN1C(=O)[C@H](CC(=O)O)NC(C)=O)[C@@H](C)O)C(=O)N[C@@H](Cc1cc(=O)oc2cc(OP(=O)(O)O)ccc12)C(=O)N1CCC[C@H]1C(=O)N[C@H](C(=O)N[C@@H](CC(C)C)C(=O)N[C@@H](CC(=O)O)C(N)=O)C(C)C; remark: listed apart in the source
Description: as §3

B1: Tyrosine-protein phosphatase non-receptor type 11 (Homo sapiens), Q06124 (protein)
chain: MTSRRWFHPNITGVEAENLLLTRGVDGSFLARPSKSNPGDFTLSVRRNGAVTHIKIQNTGDYYDLYGGEKFATLAELVQYYMEHHGQLKEKNGDVIELKYPLNCADPTSERWFHGHLSGKEAEKLLTEKGKHGSFLVRESQSHPGDFVLSVRTGDDKGESNDGKSKVTHVMIRCQELKYDVGGGERFDSLTDLVEHYKKNPMVETLGTVLQLKQPLNTTRINAAEIESRVRELSKLAETTDKVKQGFWEEFETLQQQECKLLYSRKEGQRQENKNKNRYKNILPFDHTRVVLHDGDPNEPVSDYINANIIMPEFETKCNNSKPKKSYIATQGCLQNTVNDFWRMVFQENSRVIVMTTKEVERGKSKCVKYWPDEYALKEYGVMRVRNVKESAAHDYTLRELKLSKVGQGNTERTVWQYHFRTWPDHGVPSDPGGVLDFLEEVHHKQESIMDAGPVVVHCSAGIGRTGTFIVIDILIDIIREKGVDCDIDVPKTIQMVRSQRSGMVQTEAQYRFIYMAVQHYIETLQRRIEEEQKSKRKGHEYTNIKYSLADQTSGDQSPLPPCTPTPPCAEMREDSARVYENVGLMQQQKSFR
[1]
  kcat/Km: 270 M⁻¹ s⁻¹
[2]
  kcat/Km: 6 to 6.4 M⁻¹ s⁻¹
[3]
  Km: 220 µM
[4]
  Km: 700 µM
[5]
  kcat: 0.059 s⁻¹
[6]
  kcat: 0.0045 s⁻¹

— ChEMBL document CHEMBL4433268, “Rational design of a SHP-2 targeted, fluorogenic peptide substrate” (Bioorg Med Chem Lett, 2019)
